Measurements reported in patent US20230220071A1 (Hoffmann-La Roche, published 2023).

Legend:
[1] = molecular target: T1, cynomolgus transferrin receptor on stably transfected CHO-K1 cells (cynomolgus); test: FACS on cyTfR CHO cells
T1 construct: whole, on cells; also called Cyno TfR-CHO; cyTfR

[2] = molecular target: T2, human transferrin receptor (BIAcore, construct not stated) (human, UniProt P02786 89-760); test: SPR (BIAcore), human TfR against cyno TfR
T2 construct: also called huTfR

[3] = molecular target: T1, cynomolgus transferrin receptor on …; test: FACS, cyno TfR against human TfR
[4] = molecular target: T2, human transferrin receptor (BIAcore, …); test: SPR (BIAcore)
[5] = molecular target: T3, cynomolgus transferrin receptor (BIAcore, construct not stated) (cynomolgus, UniProt H9EXL1 89-760 (rhesus entry)); test: SPR (BIAcore)
T3 construct: also called cyTfR; Cyno TfR

[6] = molecular target: T4, human transferrin receptor on stably transfected CHO-K1 cells (human, UniProt P02786 1-760); test: FACS on hTfR-CHO cells
T4 construct: whole, on cells; also called hTfR-CHO; huTfR

[7] = molecular target: T5, biotinylated cynomolgus transferrin receptor (cynomolgus); test: SPR BIAcore T200, biotinylated TfR captured, 25 C
T5 chain: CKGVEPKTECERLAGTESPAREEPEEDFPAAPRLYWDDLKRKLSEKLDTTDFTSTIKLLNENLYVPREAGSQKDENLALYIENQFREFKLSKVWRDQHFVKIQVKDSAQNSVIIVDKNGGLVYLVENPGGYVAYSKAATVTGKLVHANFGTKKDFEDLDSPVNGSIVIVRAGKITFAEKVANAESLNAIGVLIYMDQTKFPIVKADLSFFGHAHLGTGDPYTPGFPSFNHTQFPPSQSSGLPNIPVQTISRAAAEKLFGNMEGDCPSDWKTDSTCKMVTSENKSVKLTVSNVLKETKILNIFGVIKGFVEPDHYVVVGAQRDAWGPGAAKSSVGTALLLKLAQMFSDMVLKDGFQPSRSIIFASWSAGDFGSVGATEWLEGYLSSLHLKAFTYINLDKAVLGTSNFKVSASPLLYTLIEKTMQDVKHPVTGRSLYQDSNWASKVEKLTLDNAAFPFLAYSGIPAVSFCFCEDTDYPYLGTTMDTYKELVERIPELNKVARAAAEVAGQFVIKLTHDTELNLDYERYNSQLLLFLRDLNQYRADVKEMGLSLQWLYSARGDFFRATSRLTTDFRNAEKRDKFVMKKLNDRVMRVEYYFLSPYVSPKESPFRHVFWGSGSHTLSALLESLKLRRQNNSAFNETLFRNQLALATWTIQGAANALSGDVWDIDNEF
Protocol: For all analysis the Biotin CAPture Kit from GE Healthcare (Instruction 28-9242-34 AB) was used. First the chip was rehydrated by docking it in the BIAcore T200 instrument. After that, the chip was left on standby with running buffer overnight. For surface preparation the Biotin CAPture Reagent was diluted 1:100 in running buffer (1×PBS, supplemented with 0.25 M NaCl). This solution was injected on Flow Cells 1 to 4 for 360 sec with a flow rate of 2 μL/min. Next the sensor surface was conditioned with three one-minute injections of regeneration solution provided in the Biotin CAPture Kit. This has to be done for the docking procedure or for the first time or after storage. A 100 nM human or cynomolgus, respectively, mono-biotinylated transferrin receptor solution should be injected on Flow Cell 2 for 30 sec at a flow rate of 10 μL/min. […] They were injected on the “hu-TfR-flow cell” (e.g. Flow Cell 2 as prepared as outlined above) with an injection time of 180 sec (association) and a flow rate of 10 μL/min. After dissociation phase of 600 sec the surface was regenerated according to the manufacturer's instructions with the regeneration solution provided in the Biotin CAPture Kit and the next cycle was carried out.
The kinetic data was evaluated using the BIAcore T200 evaluation software. Especially the dissociation rate constants of the different human transferrin receptor binders were taken into account after the application of the 1:1 Langmuir binding model.

[8] = molecular target: T5, biotinylated cynomolgus transferrin …; test: SPR BIAcore B4000, biotinylated TfR captured, 25 C
Protocol: A CAP sensor chip (provided in the Biotin CAPture Kit, series S #28-9202-34 GE) was mounted into a BIAcore B4000 system, normalized and addressed in a hydrodynamic manner, according to the manufacturer's instructions. In the first cycle the CAP reagent (as provided in the Kit) was addressed to spot 1, 2, 4 and 5 with a flow rate of 10 μL/min for 300 sec. The human transferrin receptor capture took place in spot 1 (human transferrin receptor-biotinylated) and spot 5 (cynomolgus transferrin receptor-biotinylated) with a flow rate of 10 μL/min and a contact time of 30 sec. The receptors were diluted to a concentration of 50 nM with running buffer (1×PBS #28995084, GE Healthcare, supplemented with 0.25 M NaCl). The antibodies were injected into all flow cells in a concentration series of 100 nM, 50 nM, 25 nM and 0 nM for 180 sec at a flow speed of 30 μL/min. Dissociation time was set to 300 sec. Regeneration of the whole complex from the CAP chip has been performed utilizing the regeneration solution provided in the Biotin CAPture Kit (120 sec with a flow rate of 10 μL/min). To control the active protein concentration a second cycle was performed in spot 5 utilizing biotinylated protein A (#P2165-2MG, Sigma) with a flow rate of 10 μL/min and a contact time of 30 sec. Spot 1 was kept empty in this control cycle. The antibodies and the regeneration were handled like in cycle 1. Relevant kinetic data was calculated using the BIAcore B4000 evaluation software. The dissociation from the human transferrin receptor has been determined applying the 1:1 dissociation fit.

- EC50 [1]: 0.314 µg/mL
- ratio t1/2 human/Cyno [2]: 90.2
- ratio EC50 Cyno/human [3]: 3.3
- ratio max Cyno/human [3]: 0.6
- koff [4]: 0.000606 s⁻¹
- koff [5]: 0.0547 s⁻¹
- EC50 [6]: 0.096 µg/mL
- Kd [7]: 136 nM
- koff [7]: 0.0733 s⁻¹
- kon [7]: 541000 M⁻¹ s⁻¹
- koff [8]: 0.0778 s⁻¹
B1: murine anti-transferrin receptor antibody 128.1 (antibody, V domains shown)
VH: QVQLVQSGAEVKKPGASVKVSCKASGYTFTGYTMNWVRQAPGQGLEWMGRINPHNGGTDYAQKFQGRVTMTRDTSISTAYMELSRLRSDDTAVYYCARGYYYYSLDYWGQGTLVTVSS
VL: DIQMTQSPSSLSASVGDRVTITCRASSSIRYIHWYQQKPGKAPKRLIYDTSNLASGVPSRFSGSGSGTEFTLTISSLQPEDFATYYCHQRNSYPWTFGQGTRLEIK
notes: Mouse anti-human TfR antibody
